Measurements taken from patent US20260070975A1.

Target: c-Kit expressed on the cell surface of M-07e cells (human) (UniProt P10721)
Assay: flow cytometry on M-07e cells

Sequence of c-Kit expressed on the cell surface of M-07e cells (human) (P10721 26-976): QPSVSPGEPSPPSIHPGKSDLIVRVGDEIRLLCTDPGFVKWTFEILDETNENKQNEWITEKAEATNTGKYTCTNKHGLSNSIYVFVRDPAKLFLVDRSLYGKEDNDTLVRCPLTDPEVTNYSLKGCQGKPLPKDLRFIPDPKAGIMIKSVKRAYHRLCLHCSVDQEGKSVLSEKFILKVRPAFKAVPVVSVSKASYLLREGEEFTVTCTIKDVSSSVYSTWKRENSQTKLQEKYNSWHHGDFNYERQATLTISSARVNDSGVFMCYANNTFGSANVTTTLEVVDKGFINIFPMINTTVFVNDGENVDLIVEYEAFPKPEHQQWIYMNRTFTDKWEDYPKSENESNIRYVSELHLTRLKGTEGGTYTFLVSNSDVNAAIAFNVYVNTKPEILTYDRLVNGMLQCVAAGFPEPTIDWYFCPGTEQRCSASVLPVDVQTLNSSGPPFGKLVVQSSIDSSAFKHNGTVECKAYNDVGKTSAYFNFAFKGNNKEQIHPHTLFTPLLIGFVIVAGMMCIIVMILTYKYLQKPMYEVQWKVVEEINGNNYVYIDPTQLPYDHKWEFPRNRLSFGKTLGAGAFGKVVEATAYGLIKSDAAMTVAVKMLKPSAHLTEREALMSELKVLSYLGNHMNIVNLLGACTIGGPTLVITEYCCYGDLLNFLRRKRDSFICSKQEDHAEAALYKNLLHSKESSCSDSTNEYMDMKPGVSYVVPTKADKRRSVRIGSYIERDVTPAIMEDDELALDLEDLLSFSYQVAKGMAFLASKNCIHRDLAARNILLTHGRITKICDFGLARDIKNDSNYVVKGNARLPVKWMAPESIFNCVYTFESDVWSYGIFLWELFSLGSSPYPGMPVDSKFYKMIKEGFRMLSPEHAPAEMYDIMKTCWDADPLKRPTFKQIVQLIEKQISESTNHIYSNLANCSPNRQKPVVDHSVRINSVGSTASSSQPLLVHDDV

- Measuring Fluorescent Intensity (MFI): 85 MFI
- Percent Positive for c-Kit on M-07e cells: 2.3%
Substance: hIgG1 control (antibody)
